Results taken from patent US20210284724A1 (I MAB BIOPHARMA US, published 2021).

Legend:
[1] = target: T1, human CXCL13 F20A (human, UniProt O43927 23-109); experiment: alanine scan, flow cytometry
T1 construct: mature; 87 residues fits the mature chain
T1 sequence (looked up): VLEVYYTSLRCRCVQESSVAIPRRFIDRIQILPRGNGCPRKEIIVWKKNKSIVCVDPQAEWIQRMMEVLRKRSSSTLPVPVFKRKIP
Method: (§1) Cells were transfected with different WT construct or […] mutant construct which each amino acid was mutant to alanine, totally 87 amino acids. Then, binding of the test Fab to each mutant clone in the alanine scanning library was determined, in duplicate, by high-throughput flow cytometry. For each point, background fluorescence was subtracted from the raw data, which were then normalized to Fab reactivity with WT target protein. For each mutant clone, the mean binding value was plotted as a function of expression (represented by control reactivity). To identify preliminary primary critical clones (red circles), a threshold (dashed lines) of >70% WT binding to control Ab and <20% WT binding to test Fab was applied.

[2] = target: T2, human CXCL13 (human, UniProt O43927 23-109); experiment: ELISA binding, Fab
T2 construct: also called huCXCL13; rhCXCL13
T2 sequence (looked up): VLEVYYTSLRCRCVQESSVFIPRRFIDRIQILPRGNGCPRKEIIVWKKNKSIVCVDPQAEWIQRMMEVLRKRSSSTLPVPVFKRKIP

[3] = target: T2, human CXCL13; experiment: cell-based blocking assay, CXCL13 to CXCR5 cells
Method in brief: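 CHO-K1 cells expressing CXCR5 were plated at 5×10⁴/well overnight at 37° C, fixed with 2% PFA and blocked with 1% BSA in PBST. Serially diluted humanized Fabs were mixed with an equal volume of human CXCL13 at 0.3 μg/ml and pre-incubated for 30 min at room temperature, and 100 μl of each mix was added to the cells for 30 min. After three PBST washes, bound CXCL13 was captured with 3 μg/ml of a human anti-CXCL13 antibody, detected with anti-human Fc-HRP and read at 450 nm. IC50 was derived from the titration.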

[4] = target: T2, human CXCL13; experiment: SPR Biacore 8K, Fab over immobilised CXCL13
Method in brief: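 Fabs (0–16 nM series) flowed at 30 μl/min over CXCL13 amine-coupled to CM5 (~30 RU) on Biacore 8K, 600 s dissociation. Running buffer HEPES 10 mM, NaCl 150 mM, EDTA 3 mM, 0.05% Tween-20, pH 7.4; regeneration with 10 mM glycine-HCl pH 2.0.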

[5] = target: T2, human CXCL13; experiment: SPR Biacore, off-rate ranking of Fabs
[6] = target: T3, human CXCL13 R24A (human, UniProt O43927 23-109); experiment: alanine scan, flow cytometry on transfected cells
T3 construct: mature; 87 residues fits the mature chain
T3 sequence (looked up): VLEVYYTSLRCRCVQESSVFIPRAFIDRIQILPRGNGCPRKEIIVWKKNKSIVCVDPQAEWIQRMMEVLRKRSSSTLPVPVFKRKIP
Method: as §1
(§2) We draw the crystal structure diagram in the FIG. 8B, and the critical residues for 64C10G1 Fab binding were visualized and shown on this crystal structure.

[7] = target: T1, human CXCL13 F20A; experiment: alanine scan, flow cytometry on transfected cells
Method: as §1, §2

[8] = target: T4, human CXCL13 F25A (human, UniProt O43927 23-109); experiment: alanine scan, flow cytometry on transfected cells
T4 construct: mature; 87 residues fits the mature chain
T4 sequence (looked up): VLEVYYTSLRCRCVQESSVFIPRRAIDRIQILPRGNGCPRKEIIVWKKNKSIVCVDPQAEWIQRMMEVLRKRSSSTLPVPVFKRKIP
Method: as §1, §2

[9] = target: T5, human CXCL13 P22A (human, UniProt O43927 23-109); experiment: alanine scan, flow cytometry on transfected cells
T5 construct: mature; 87 residues fits the mature chain
T5 sequence (looked up): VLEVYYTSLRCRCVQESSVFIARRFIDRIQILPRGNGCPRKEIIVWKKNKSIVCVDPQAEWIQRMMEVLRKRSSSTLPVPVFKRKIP
Method: as §1, §2

[10] = target: T2, human CXCL13; experiment: SPR Biacore 8K, Fab over immobilised CXCL13; remark: listed apart in the source
Method in brief: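 Surface plasmon resonance: CXCL13 amine-coupled to CM5 chip at ~250 RU, humanized Fabs injected at 0–20 nM, 30 μl/min, in HEPES-buffered saline with EDTA and Tween-20, pH 7.4. Dissociation 600 s; regeneration with glycine-HCl pH 2.0.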

B1: 64C10G1 chimeric Fab (Fab, V domains shown)
VH: EVQLVESGGGLVKPGGSLKLSCAASGFTFSSYAMSWVRQTPEKRLEWVATISDGGSDAYYPDNVKGRFTISRDNAKNNLYLQMSHLKSEDTAMYYCARDYYGSGYEDSPMDYWGQGTSVTVSS
VL: DIQMTQSPSSLSASLGGKVTITCKASQDINKYIAWYQHKPGKGPRLLIHYTSTLQPGIPSRFSGSGSGRDYSFSISNLEPEDFATYYCLQYDNLYTFGGGTKLEIK
notes: Fab; also called 64C10G1 Fab
With B1 the binding result [1] was “no binding (tested: <20% WT binding)”, the EC50 [2] was 1.71 nM and the IC50 [3] was 7.22 nM. For the same binder, the Kd [4] was 0.178 nM, the koff [4] was 0.0005 s⁻¹ and the kon [4] was 2.81e+06 M⁻¹ s⁻¹. It also gave a Kd [5] of 0.814 nM, a koff [5] of 0.00218 s⁻¹ and a kon [5] of 2.68e+06 M⁻¹ s⁻¹. The “Binding reactivity (% WT)” value [6] was -3.3 % WT, the “Binding reactivity (% WT)” value [7] was 9.4 % WT and the “Binding reactivity (% WT)” value [8] was -3.2 % WT. For the same binder, the “Binding reactivity (% WT)” value [9] was 14.8 % WT, the Kd [10] was 0.814 nM and the koff [10] was 0.00218 s⁻¹. The kon [10] was 2.68e+06 M⁻¹ s⁻¹.
